75 sequences from the supplement of paper PMC7877785 can be followed below.

The data set is described as follows: self-splicing fitness, log relative to wild type (ln ratio); higher = more splicing; Tetrahymena group I intron in knt gene, E. coli kanamycin selection, DiMSum; sequences stand for … in CUCUCU…GGAGGGAAAAGUUAUCAGGCAUGCACCUGGUAGCUAGUCUUUAAACCAAUAGAUUGCAUCGGUUUAAAAGGCAAGACCGUCAAAUUGCGGGAAAGGGGUCAACAGCCGUUCAGUACCAAGUCUCAGGGGAAACUUUGAGAUGGCCUUGCAAAGGGUAUGGUAAUAAGCUGACGGACAUGGUCCUAACCACGCAGCCAAGUCCUAAGUCAACAGAUCUUCUGUUGAUAUGGAUGCAGUUCACAGACUAAAUGUCGGUCGGGGAAGAUGUAUUCUUCUCAUAAGAUAUAGUCGGACCUCUCCUUAAUGGGAGCUAGCGGAUGAAGUGAUGCAACACUGGAGCCGCUGGGAACUAAUUUGUAUGCGAAAGUAUAUUGAUUAGUUUUGGAGUACUCGUGGUCG
The gist of the method:
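Colonies from six replicate transformations of E. coli BL21(DE3) were pooled and amplicon-sequenced on an Illumina HiSeq 2500. The library placed an intron with all eight P1ex-region nucleotides randomised inside the knt kanamycin-resistance gene on pET-22b(+), and cells grew overnight at 37°C or 30°C on LB agar with or without 25 μg/mL kanamycin (plus 100 μg/mL carbenicillin, 50 μM IPTG, 0.2% rhamnose). Fitness is the DiMSum error-weighted combination of wild-type-normalised replicate fold changes, kanamycin versus none.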

± gives the uncertainty stated by the source.

Consider AACUAGCAAUAUUACGAAAC, for which the “self-splicing fitness (ln)” value runs as follows: (30 °C) -3.3 ± 0.21; (37 °C) -2.94 ± 0.3.
AACUAGCAAUAUUACGAACA: the “self-splicing fitness (ln)” value (30 °C) was -1.12 ± 0.07 and the “self-splicing fitness (ln)” value (37 °C) is -0.611 ± 0.081.
The corresponding values for AACUAGCAAUAUUACGAAGG are -3.46 ± 0.2 and -2.74 ± 0.26.
As for AACUAGCAAUAUUACGACCU, the “self-splicing fitness (ln)” value is -0.168 ± 0.083 (30 °C) and 0.541 ± 0.11 (37 °C).
Consider AACUAGCAAUAUUACGACGA, for which the “self-splicing fitness (ln)” value reads like this: (30 °C) -0.137 ± 0.066; (37 °C) -0.576 ± 0.074.
As for AACUAGCAAUAUUACGAGGC, the “self-splicing fitness (ln)” value reads like this: (30 °C) -3.35 ± 0.2; (37 °C) -2.62 ± 0.35.
Take AACUAGCAAUAUUACGAUAU: the “self-splicing fitness (ln)” value is -1.26 ± 0.077 (30 °C) and -0.429 ± 0.11 (37 °C).
Take AACUAGCAAUAUUACGCAGG: the “self-splicing fitness (ln)” value by setting is: (30 °C) -2.99 ± 0.15; (37 °C) -1.66 ± 0.14.
Turning to AACUAGCAAUAUUACGCAUU, the “self-splicing fitness (ln)” value (30 °C) was -2.19 ± 0.077 and the “self-splicing fitness (ln)” value (37 °C) was -1.09 ± 0.073.
In the case of AACUAGCAAUAUUACGCGGA, the “self-splicing fitness (ln)” value (30 °C) was -2.25 ± 0.1 and the “self-splicing fitness (ln)” value (37 °C) was -1.18 ± 0.086.
For AACUAGCAAUAUUACGGCCA, in that order: -0.0639 ± 0.1 and -0.69 ± 0.1.
Turning to AACUAGCAAUAUUACGGCGG, the “self-splicing fitness (ln)” value (30 °C) is -1.21 ± 0.087 and the “self-splicing fitness (ln)” value (37 °C) was -0.787 ± 0.11.
Turning to AACUAGCAAUAUUACGGCGU, the “self-splicing fitness (ln)” value reads like this: (30 °C) -0.717 ± 0.072; (37 °C) 0.0758 ± 0.085.
For the sequence AACUAGCAAUAUUACGGUAA, the “self-splicing fitness (ln)” value (30 °C) is -1.49 ± 0.094 and the “self-splicing fitness (ln)” value (37 °C) was -0.267 ± 0.095.
Take AACUAGCAAUAUUACGGUCA: the “self-splicing fitness (ln)” value is, setting by setting: (30 °C) -0.313 ± 0.074; (37 °C) 0.442 ± 0.093.
Consider AACUAGCAAUAUUACGGUGC, for which the “self-splicing fitness (ln)” value (30 °C) is -2.46 ± 0.16 and the “self-splicing fitness (ln)” value (37 °C) was -1.77 ± 0.15.
With AACUAGCAAUAUUACGUCAU, the “self-splicing fitness (ln)” value is, setting by setting: (30 °C) -2.91 ± 0.13; (37 °C) -1.21 ± 0.12.
The corresponding values for AACUAGCAAUAUUACGUCCA are -0.578 ± 0.094 and -0.0353 ± 0.11.
Turning to AACUAGCAAUAUUACGUCGU, the “self-splicing fitness (ln)” value reads like this: (30 °C) -1.8 ± 0.055; (37 °C) -1.03 ± 0.067.
As for AACUAGCAAUAUUACGUGGC, the “self-splicing fitness (ln)” value was -3.72 ± 0.25 (30 °C) and -1.92 ± 0.17 (37 °C).
Take AACUAGCAAUAUUACGUUAA: the “self-splicing fitness (ln)” value (30 °C) is -2.93 ± 0.24 and the “self-splicing fitness (ln)” value (37 °C) was -1.71 ± 0.23.
The corresponding values for AAGAAGCAAUAUUACGAACU are -0.3 ± 0.091 and 0.86 ± 0.11.
Regarding AAGAAGCAAUAUUACGAAUU, the “self-splicing fitness (ln)” value (30 °C) is -1.53 ± 0.084 and the “self-splicing fitness (ln)” value (37 °C) was -0.992 ± 0.12.
As for AAGAAGCAAUAUUACGACAU, the “self-splicing fitness (ln)” value was -0.0917 ± 0.012 (30 °C) and -0.0361 ± 0.032 (37 °C).
On to AAGAAGCAAUAUUACGACGG, for which the “self-splicing fitness (ln)” value was -1.52 ± 0.078 (30 °C) and -1.15 ± 0.14 (37 °C).
On to AAGAAGCAAUAUUACGAGGG, for which the “self-splicing fitness (ln)” value was -3.5 ± 0.3 (30 °C) and -2.32 ± 0.35 (37 °C).
The corresponding values for AAGAAGCAAUAUUACGAGUC are -2.53 ± 0.23 and -1.51 ± 0.25.
Consider AAGAAGCAAUAUUACGCCAG, for which the “self-splicing fitness (ln)” value is -2.87 ± 0.26 (30 °C) and -2.3 ± 0.27 (37 °C).
The corresponding values for AAGAAGCAAUAUUACGCGCA are 0.0488 ± 0.077 and 0.115 ± 0.1.
For the sequence AAGAAGCAAUAUUACGCGGG, the “self-splicing fitness (ln)” value was -2.95 ± 0.2 (30 °C) and -0.684 ± 0.11 (37 °C).
AAGAAGCAAUAUUACGCGGU: the “self-splicing fitness (ln)” value was -3.58 ± 0.3 (30 °C) and -1.54 ± 0.19 (37 °C).
Regarding AAGAAGCAAUAUUACGCUAU, the “self-splicing fitness (ln)” value runs as follows: (30 °C) -3.04 ± 0.17; (37 °C) -1.44 ± 0.17.
With AAGAAGCAAUAUUACGGAAC, where the note is “37 °C”, the “self-splicing fitness (ln)” value was -2.58 ± 0.45.
Take AAGAAGCAAUAUUACGGAAU: the “self-splicing fitness (ln)” value is -1.67 ± 0.12 (30 °C) and -1.85 ± 0.2 (37 °C).
With AAGAAGCAAUAUUACGGAUC, the “self-splicing fitness (ln)” value is, setting by setting: (30 °C) -1.23 ± 0.11; (37 °C) 0.142 ± 0.17.
On to AAGAAGCAAUAUUACGGCUU, for which the “self-splicing fitness (ln)” value runs as follows: (30 °C) -2.42 ± 0.14; (37 °C) -3.23 ± 0.24.
For the sequence AAGAAGCAAUAUUACGGGCG, the “self-splicing fitness (ln)” value was -1.48 ± 0.081 (30 °C) and -0.421 ± 0.11 (37 °C).
Turning to AAGAAGCAAUAUUACGGGUC, the “self-splicing fitness (ln)” value runs as follows: (30 °C) -4.04 ± 0.35; (37 °C) -1.69 ± 0.21.
Regarding AAGAAGCAAUAUUACGUGCA, the “self-splicing fitness (ln)” value is, setting by setting: (30 °C) -0.663 ± 0.08; (37 °C) -0.0733 ± 0.1.
With AAGAAGCAAUAUUACGUGGA, the “self-splicing fitness (ln)” value is -2.97 ± 0.12 (30 °C) and -2.44 ± 0.12 (37 °C).
As for AAGAAGCAAUAUUACGUUCG, the “self-splicing fitness (ln)” value was -0.932 ± 0.084 (30 °C) and -0.625 ± 0.1 (37 °C).
On to AAGAAGCAAUAUUACGUUGA, for which the “self-splicing fitness (ln)” value is -1.76 ± 0.12 (30 °C) and -2.25 ± 0.14 (37 °C).
Regarding AAGCAGCAAUAUUACGAAAA, the “self-splicing fitness (ln)” value by setting is: (30 °C) -2.81 ± 0.25; (37 °C) -1.77 ± 0.16.
On to AAGCAGCAAUAUUACGAAAU, for which the “self-splicing fitness (ln)” value is -2.65 ± 0.11 (30 °C) and -1.33 ± 0.12 (37 °C).
For AAGCAGCAAUAUUACGACGA, in that order: -0.888 ± 0.089 and -0.307 ± 0.094.
Regarding AAGCAGCAAUAUUACGAGCA, the “self-splicing fitness (ln)” value (30 °C) is -0.694 ± 0.073 and the “self-splicing fitness (ln)” value (37 °C) is -0.435 ± 0.086.
Regarding AAGCAGCAAUAUUACGAUAC, the “self-splicing fitness (ln)” value was -2.7 ± 0.14 (30 °C) and -1.7 ± 0.18 (37 °C).
On to AAGCAGCAAUAUUACGAUGA, for which the “self-splicing fitness (ln)” value is, setting by setting: (30 °C) -0.809 ± 0.078; (37 °C) -0.909 ± 0.083.
The corresponding values for AAGCAGCAAUAUUACGCCGU are -1.22 ± 0.11 and -0.738 ± 0.13.
For the sequence AAGCAGCAAUAUUACGCGAG, the “self-splicing fitness (ln)” value by setting is: (30 °C) -0.949 ± 0.095; (37 °C) -0.986 ± 0.11.
AAGCAGCAAUAUUACGCGCC: the “self-splicing fitness (ln)” value is, setting by setting: (30 °C) -1.33 ± 0.11; (37 °C) -1.24 ± 0.15.
As to AAGCAGCAAUAUUACGCGGC, the “self-splicing fitness (ln)” value reads like this: (30 °C) -3.33 ± 0.35; (37 °C) -2.4 ± 0.24.
For AAGCAGCAAUAUUACGCUAA, the “self-splicing fitness (ln)” value (30 °C) is -1.46 ± 0.075 and the “self-splicing fitness (ln)” value (37 °C) is -1.12 ± 0.086.
Take AAGCAGCAAUAUUACGCUCC: the “self-splicing fitness (ln)” value is -1.82 ± 0.16 (30 °C) and -0.511 ± 0.2 (37 °C).
AAGCAGCAAUAUUACGCUGG: the “self-splicing fitness (ln)” value was -3.27 ± 0.21 (30 °C) and -1.72 ± 0.15 (37 °C).
The corresponding values for AAGCAGCAAUAUUACGCUUG are -2.89 ± 0.16 and -2.14 ± 0.16.
As to AAGCAGCAAUAUUACGGCUG, the “self-splicing fitness (ln)” value is, setting by setting: (30 °C) -2.92 ± 0.12; (37 °C) -2.75 ± 0.16.
The corresponding values for AAGCAGCAAUAUUACGGUAG are -3.38 ± 0.15 and -3.25 ± 0.2.
For AAGCAGCAAUAUUACGUAAU, in that order: -1.49 ± 0.068 and -0.923 ± 0.094.
For AAGCAGCAAUAUUACGUAGA, the “self-splicing fitness (ln)” value is, setting by setting: (30 °C) -2.7 ± 0.097; (37 °C) -1.42 ± 0.082.
AAGCAGCAAUAUUACGUCAC: the “self-splicing fitness (ln)” value (30 °C) was -4.94 ± 0.42 and the “self-splicing fitness (ln)” value (37 °C) is -2.25 ± 0.3.
For AAGCAGCAAUAUUACGUCAU, in that order: -3.1 ± 0.14 and -1.76 ± 0.14.
The corresponding values for AAGCAGCAAUAUUACGUCUC are -1.28 ± 0.065 and -0.717 ± 0.077.
Consider AAGCAGCAAUAUUACGUGUA, for which the “self-splicing fitness (ln)” value by setting is: (30 °C) -1.83 ± 0.081; (37 °C) -0.134 ± 0.077.
As for AAGCAGCAAUAUUACGUUUC, the “self-splicing fitness (ln)” value is, setting by setting: (30 °C) -3.3 ± 0.16; (37 °C) -2.27 ± 0.31.
The corresponding values for AAGGAGCAAUAUUACGAAAU are -2.26 ± 0.14 and -3 ± 0.29.
Consider AAGGAGCAAUAUUACGAGCU, for which the “self-splicing fitness (ln)” value (37 °C) was -0.204 ± 0.24.
AAGGAGCAAUAUUACGAGGG: the “self-splicing fitness (ln)” value by setting is: (30 °C) -2.76 ± 0.24; (37 °C) -2.93 ± 0.3.
Take AAGGAGCAAUAUUACGAUGA: the “self-splicing fitness (ln)” value is -3.04 ± 0.24 (30 °C) and -2.02 ± 0.2 (37 °C).
For AAGGAGCAAUAUUACGAUGU, in that order: -2.12 ± 0.14 and -2.28 ± 0.23.
In the case of AAGGAGCAAUAUUACGCACG, the “self-splicing fitness (ln)” value is -1.84 ± 0.43 (30 °C) and -0.01 ± 0.45 (37 °C).
Take AAGGAGCAAUAUUACGCAUC: the “self-splicing fitness (ln)” value reads like this: (30 °C) -5.17 ± 0.36; (37 °C) -2.52 ± 0.19.
On to AAGGAGCAAUAUUACGCCGG, for which the “self-splicing fitness (ln)” value was -3.01 ± 0.4 (30 °C) and -2.6 ± 0.36 (37 °C).
As for AAGGAGCAAUAUUACGCGCA, the “self-splicing fitness (ln)” value is -1.82 ± 0.18 (30 °C) and -0.97 ± 0.2 (37 °C).
On to AAGGAGCAAUAUUACGCUAC, for which the “self-splicing fitness (ln)” value (30 °C) was -2.75 ± 0.43.
